Pearson correlation coefficient (PCC) of colocalization and pearson correlation coefficient (PCC) of the colocalization of the delivered antibody with the mitochondrial marker MitoTracker Red CMXRos data for 2 substances are collected here from patent US20250269046A1, “CELLULAR UPTAKE OF LARGE BIOMOLECULES ENABLED BY CELL-SURFACE-REACTIVE CELL-PENETRATING PEPTIDE ADDITIVES” (FORSCHUNGSVERBUND BERLIN E.V., priority 2021, published 2025).

The target in assay [1] is Lifeact-mVenus (GFP mutant, expressed in transfected HeLa CCL-2 cells). In words: confocal microscopy of live HeLa CCL-2 cells transfected with Lifeact-mVenus after delivery of 500 nM antibody with TNB-R10; colocalization of antibody and mVenus signals.
Assay [2] has as its target endogenous mitochondrial receptor TOMM20 (in HeLa CCL-2 cells) (UniProt Q15388). In words: cell-based or functional assay.

Sequence of endogenous mitochondrial receptor TOMM20 (in HeLa CCL-2 cells) (Q15388 whole entry): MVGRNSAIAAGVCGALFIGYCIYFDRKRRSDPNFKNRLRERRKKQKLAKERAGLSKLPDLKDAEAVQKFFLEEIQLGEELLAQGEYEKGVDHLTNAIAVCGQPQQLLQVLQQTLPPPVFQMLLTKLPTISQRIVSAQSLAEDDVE

For “Alexa Fluor 594 anti-GFP Antibody, Clone 1GFP63”, the pearson correlation coefficient (PCC) of colocalization in assay [1] amounted to 0.8.

“Anti-Tom20/Tomm20, clone 2F8.1 (antibody)” showed a pearson correlation coefficient (PCC) of the colocalization of the delivered antibody with the mitochondrial marker MitoTracker Red CMXRos in assay [2] of 0.58.
